The record followed here is PMC3817118.

Assay [1] concerns the target central region of the human metapneumovirus phosphoprotein (HMPV P residues 158-237) (human metapneumovirus, strain NL1-00). Kind of assay: SAXS; Pced in solution at 3-6 mg/ml, 20 C; 20 mM Tris pH 7.5 with 150 mM NaCl, 800 mM NaCl, or NaCl plus 1 M NDSB-201; molecular weight from the volume of correlation Vc compared with the mass of a tetramer.
For assay [2], the target named is core region of Pced (P_(core)), degradation fragment of HMPV P 158-237 found in the crystal (human metapneumovirus, strain NL1-00). Kind of assay: crystal structure; vapor diffusion, 25 % PEG 3350, 100 mM HEPES pH 7.5, 20 C, crystal after ~142 days; 3.1 A, molecular replacement with the ab initio P_(core) model; 2 tetramers in the asymmetric unit.

Consider “central region of the human metapneumovirus phosphoprotein (HMPV P residues 158-237) (domain or fragment)”, for which, in assay [1], the stoichiometry N turned out to be 4.
For “core region of Pced (P_(core)), degradation fragment of HMPV P 158-237 found in the crystal (domain or fragment)”, in assay [2], the stoichiometry N was 4.
